The nature of this series: soluble on expression in E. coli; label from the status in PepcDB or PDB records.
For the sequence “MAKRIKNTTPKQDGFRMPGEFEKQKQIWMLWPWRNDNWRLGAKPAQKAFLEVAEAISEFEPVSLCVPPLQYENALARVSELGSHNIRIIEMTNDDAWIRDCGPTFLVNDKGDLRAVDWEFNAWGGLVDGLYFPWDQDALVARKVCEIEGVDSYKTKDFVLEGGSIHVDGEGTVLVTEMCLLHPSRNPHLTKEDIEDKLKDYLNCVKVLWVKDGIDPYETNGHIDDVACFIRPGEVACIYTDDKEHPFYQEAKAAYDFLSQQTDAKGRPLKVHKMCVTKEPCYLQEAATIDYVEGSIPREEGEMAIASYLNFLIVNGGIILPQYGDENDQLAKQQVQEMFPDRKVVGVRTEEIAYGGGNIHCITQQQPATLEHHHHHH”, the “soluble on expression in E. coli” value was “soluble”. Turning to “MPCDPIGQFAVLECLDYRWYESLDVRLYGSFGLLQLFPELEKAVMRAFARAIPQGDDTPRVIGYYYTIGAESPIAVRKTPGATPHDLGAPNEHVWEKTNYTSYQDCNLWKDLGCDFVLQVYRDFLLTGADDVQFLRDCWDAIVETLDYVKTFDLDGDGIPENSGAPDQTFDDWRLQGVSAYCGGLWLAALAAAIAISDILLQNHQDSATKEHLLYQKSTYETWLTKSLPIYQEKLWNGKYYRLDSESGSDVVMADQLCGQFYANLLELPDIVPSDRAISALQTVYDACFLKFYDGQFGAANGVRPDGSPENPKATHPLEVWTGINFGLAAFLVQMGMKDEGFRLTQAVVEQIYNNGLQFRTPEAITAAGTFRASTYLRPMAIWAIYLMIGLEHHHHHH”, the “soluble on expression in E. coli” value was “not soluble”. The entry for “SNPQIRNPMKAMYPGTFYFQFKNLWEANDRDETWLCFTVEGIKRRSVVSWKTGVFRNQVDSETHCHAERCFLSWFCDDILSPNTKYQVTWYTSWSPCPDCAGEVAEFLARHSNVNLTIFTARLYYFQYPCYQEGLRSLSQEGVAVEIMDYEDFKYCWENFVYNDNEPFKPWKGLKTNFRLLKRRLRESLQ” is “soluble”. Then “MDSDPLGVFPNSPKYHPYYSQTTEFGGVIDLGLSLRTIQHEIYHSSGQIMTCGKGYCSNEGYRRKWGYVKVTMDGLVVGRKVCVLDHGSYSTLAHQLEDMFGMQSVSGLRLFQMESEFCLVYRDEEGLWRNAGDVPWNEFIESVERLRITRRNDAVLPF”, with “not soluble”; and “MGSDKIHHHHHHMMRNIAICSNEVENLILGQDSVKTIDMNGILVRCGLLRTENIYFDRNAVSNRFKVLVKKKAFSCNYRDKSIIFRITKQAPENTFYVVGSDFVGEVIATGSEVTELKVGDRVIANNAYPESDALEAFPGIPSNHASKEYQVFHQAKLIKIPLEMSDEIAAAFSIGGQTSYSIVRKFNPTKGSNILVTAAKSNTSLFVINALKKYDVNIYATSTSRLFEEELRAMGVKKVILVESKPNSLLENQSIQNIVAETGGFDCVFDPFFDLYLGQSVELMKIGAKYITCGLYDQYFELINQSFTPFSLNTNHIMGSVMTKNLQIIGNCLGLTEDLKNAIQDYALGHLNVVIDSVFTGKDIEGFFERTYNAKDRFGKVVYKYE”, with “not soluble”; and “MGSDKIHHHHHHMRGIVLFPIINCSGAMVEITSTEMTPPVNDSHEFIPMRGIRNRHLQTMLPRLIRRKVKFNAHWQRLELPDGDFVDLAWSEDPQQAKYKPRLVVFHGLEGSLNSPYAHGLIEAAQKRGWLGVVMHFRGCSGEPNRLNRIYHSGETEDGAWFLRWLQREFGAVPTAAVGYSLGGNMLACLLAKEGRDIPIEAAVIVSAPFVLEACSYHMDKGFSRVYQRYLLNLLKANASRKLAAYPGSLPVNLAQLKSMRRIREFDDLITAKIHGFADAIDYYRQCSAMPLLNQIAKPTLIIHAKDDPFMDHHVIPKAEDLPPQVEYQLTEHGGHVGFIGGTPLRPEMWLERRIPDWLTTYLEASS”, with “not soluble”.

“MGSDKIHHHHHHMFMKNLYIDPDITKASTISSEFYTSTEWFEITKEKIFSKTWQFCISTEELTTNRQLIPFTLLPGYLEEPLLFAKDELGTIRCLSNVCTHRGKILIEEPCVAHKIKCSYHGRRFNFCGELLHMPEFELTKDFPSNNDNLSQISTGILEPFLFASLSPVVPFHEVFAEIKERLFWLPMEKMRLDKEKCKDYVVKSHWALYCENYLEALHIPFVHPSLRKVIDCNTYTTELFRYCNLQLALASPDEVSFDLPKGAQDYGKQVAAYYFWIFPNTMLNFYPWGCSVNVVKPLSPELTQVSFLSFVLDESKFGKGAGGALDQVEQEDERVVESVQRGIKSRYYDIGRFSPTKEQGTHHFQRLLCEFLND”: the “soluble on expression in E. coli” value is “not soluble”.

Source of the values: the DeepSol protein solubility set.
